± gives the standard deviation of the averaged measurements.
Tested on: Saccharomyces cerevisiae
Test: protein stability index of tFT-peptide fusion (C-terminal peptide) (PSI (0-1 scale)); higher = more stable (slower turnover)
Conditions: genetic background: wild type; temperature: 30 C
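Also: PSI is a weighted mean of sequencing reads over stability bins, variants kept only with over 10 reads, mCherry proximal and sfGFP distal, peptide attached via GGGS linker.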

| Sequence | protein stability index |
| --- | --- |
| PLPSPSSSSSPI | 0.674 ± 0.043 |
| LDGLNLVRVVGV | 0.674 ± 0.044 |
| KKKKKKKYKQRK | 0.706 ± 0.05 |
| LFAGPPTGPNAR | 0.802 ± 0.12 |
| SSPLTPAPLCSS | 0.702 ± 0.1 |
| PLRTCPCAPLPS | 0.689 ± 0.012 |
| RRRKGTKNMQSK | 0.727 ± 0.061 |
| GGGVGLRGGWDG | 0.71 ± 0.044 |
| WFDGGGWLLFVV | 0.557 ± 0.011 |
| GLTGAATVPHSA | 0.732 ± 0.013 |
| PCPPARSSLALS | 0.636 ± 0.051 |
| EKLADTTKRRRV | 0.724 ± 0.026 |
| PVPERTSAEPPG | 0.618 ± 0.038 |
| LFFLLCHVGSFR | 0.516 ± 0.0085 |
| PRPPRAPPPLPS | 0.643 ± 0.1 |
| IKMKRMTKIKKK | 0.745 ± 0.049 |
| RPGWSRGREAVA | 0.735 ± 0.14 |
| TPPLPLPSPPCP | 0.7249 ± 0.0035 |
| SKKDMWMFVGEG | 0.722 ± 0.032 |
| ACSPPPLLPPPL | 0.737 ± 0.016 |
| VWLFAESFCGCV | 0.597 ± 0.036 |
| EKKDKKKRKEKG | 0.674 ± 0.028 |
| GGVVACGLRVAS | 0.62 ± 0.058 |
| FVWSGVGGSGVG | 0.679 ± 0.028 |
| GDARLAIWSLVT | 0.512 ± 0.0098 |
| LSRSTSYILIII | 0.515 ± 0.039 |

| Sequence | protein stability index |
| --- | --- |
| LFWFSRVVCMSF | 0.564 ± 0.048 |
| GWVPDGCVGSIG | 0.653 ± 0.069 |
| YTPVKDNDVKVY | 0.722 ± 0.077 |
| KKKKEEKQKGLK | 0.69 ± 0.028 |
| YFGPSPTRPPVP | 0.7225 ± 0.0015 |
| WGGCALEQGGAV | 0.736 ± 0.025 |
| VGAFCLLLGFEG | 0.599 ± 0.038 |
| YTPSPHVRAPRH | 0.737 ± 0.025 |
| PPLCRSFPPASL | 0.791 ± 0.061 |
| PAPPPPPRPPPS | 0.655 ± 0.008 |
| SILEIFSQGTEM | 0.693 ± 0.01 |
| VAGQISGLIYFR | 0.699 ± 0.044 |
| PAGFQTPPLVHD | 0.708 ± 0.091 |
| PSASPPPPARQP | 0.672 ± 0.057 |
| PLTRSRFLLSPL | 0.653 ± 0.034 |
| GRYLGARRGRAF | 0.68 ± 0.078 |
| WGRRGSRGSWGA | 0.733 ± 0.028 |
| LRGLRALRGDLT | 0.654 ± 0.05 |
| NGKGARSGETRT | 0.647 ± 0.057 |
| RLSPPGFRLGLF | 0.517 ± 0.029 |
| VFESGRYLRVAP | 0.777 ± 0.05 |
| PVRVRGRGGCGG | 0.684 ± 0.11 |
| AIVASAPSLGRS | 0.658 ± 0.038 |
| PVHFLPTPRAPL | 0.686 ± 0.039 |
| TALKNLPSVSSV | 0.712 ± 0.1 |
| PSSLATFLPWPI | 0.739 ± 0.039 |

| Sequence | protein stability index |
| --- | --- |
| RLPFLPPPPCPP | 0.716 ± 0.046 |
| SPPPLDSFPFIT | 0.659 ± 0.051 |
| SPSPPLPSPRPP | 0.594 ± 0.094 |
| DHSAPIIPMMKV | 0.6239 ± 0.0058 |
| HTGKAATRKVIK | 0.634 ± 0.024 |
| HWSMRVNRTEGG | 0.663 ± 0.055 |
| LPLPSTYHHISK | 0.68 ± 0.063 |
| EVTVSGEEQRAG | 0.6881 ± 0.0044 |
| PCPAPLPPPAPP | 0.619 ± 0.0098 |
| EVFGAGRNDPGS | 0.689 ± 0.018 |
| KNKKFKKDEKTR | 0.773 ± 0.059 |
| PGCGVGSPARAE | 0.712 ± 0.032 |
| PAPPTPPPPLYP | 0.715 ± 0.015 |
| PPRPRPPPSPYH | 0.667 ± 0.011 |
| PLARLRFRSVVG | 0.6678 ± 0.0038 |
| PPTPMRAQRHPR | 0.579 ± 0.01 |
| TIAETIGCEKII | 0.785 ± 0.099 |
| HPPPFRSIPEPQ | 0.678 ± 0.019 |
| GNGIRLIPPAYS | 0.725 ± 0.028 |
| PKKKKKKTKAEK | 0.712 ± 0.035 |
| GRYSECCSGGGG | 0.674 ± 0.015 |
| RNCSSALPPPPS | 0.7154 ± 0.0028 |
| PPFPPAPPRGPA | 0.659 ± 0.043 |
| ILTPPPLPDLLP | 0.706 ± 0.019 |
| CLYVTFFLPCIL | 0.491 ± 0.016 |
| SRRERALGQQPI | 0.679 ± 0.011 |

| Sequence | protein stability index |
| --- | --- |
| AAKQIPRYRTTG | 0.716 ± 0.078 |
| LLVGVGGAGGVG | 0.603 ± 0.012 |
| PPSPPDPLLCSP | 0.7017 ± 0.0043 |
| PPRPPPSPPLPS | 0.663 ± 0.054 |
| AGSSGGGAWWGE | 0.681 ± 0.12 |
| SGARDLVILTPW | 0.713 ± 0.013 |
| GRLGCAVCGSRG | 0.708 ± 0.041 |
| KLLLYNILSYWS | 0.56105 ± 0.00055 |
| YARVIFGGNWFS | 0.552 ± 0.02 |
| GRWRIVSLEELQ | 0.724 ± 0.035 |
| VEPLLGHPISRD | 0.702 ± 0.049 |
| DLGRRRVGPKGA | 0.717 ± 0.024 |
| FWERWDLFCGLC | 0.702 ± 0.1 |
| GGGCVGGGSSCA | 0.701 ± 0.12 |
| PLPHSPPPPPPT | 0.736 ± 0.024 |
| LTCRGESYAGLI | 0.651 ± 0.014 |
| GVWCDIVLPGVM | 0.704 ± 0.052 |
| CPLAAGSFSSLS | 0.6608 ± 0.0009 |
| SCYTEQRVMICL | 0.592 ± 0.0023 |
| VDASGYDEQSVH | 0.6622 ± 0.0018 |
| RPTTTQPPPTAS | 0.62 ± 0.022 |
| GGCGGVCGACVV | 0.695 ± 0.011 |
| GPFDVLPEPNPG | 0.6348 ± 0.0037 |
| TEDGSYGESEQA | 0.642 ± 0.023 |
| RTQRGRMGGEQG | 0.762 ± 0.12 |
| GLPTFLTDSSFW | 0.725 ± 0.039 |

| Sequence | protein stability index |
| --- | --- |
| GQVAKVKVRKKK | 0.755 ± 0.052 |
| IDSSLERVRQHS | 0.677 ± 0.058 |
| SMGGDTFILFAV | 0.67 ± 0.023 |
| LLHEAFSSPLSS | 0.7164 ± 0.0068 |
| IGLSPICAAAYT | 0.6515 ± 0.001 |
| SGTRARGKGVVC | 0.6421 ± 0.0024 |
| SLWIKRSPVFSF | 0.563 ± 0.014 |
| PTNPPLSQPPPQ | 0.702 ± 0.039 |
| GCVSAVSKCFFL | 0.751 ± 0.1 |
| IWGGAVQARFKG | 0.733 ± 0.14 |
| DDSQKLTNNNEG | 0.744 ± 0.013 |
| EKKNKKRNKKNK | 0.697 ± 0.058 |
| YVEVLLFTSVGF | 0.569 ± 0.07 |
| SALLPSPGPPAF | 0.656 ± 0.089 |
| WSVVGVGGCGAR | 0.712 ± 0.041 |
| SPLLLSSPRPSP | 0.735 ± 0.062 |
| PFSLPPPHLWSI | 0.746 ± 0.065 |
| SQSPPTSPAPHD | 0.706 ± 0.016 |
| PPPPLDSFPFIT | 0.701 ± 0.043 |
| VPGFARLFGLLD | 0.737 ± 0.047 |
| GIMPVRENCGVF | 0.6422 ± 0.0048 |
| SPASPNALPAAP | 0.741 ± 0.046 |
| NKTIVNNVKIRY | 0.574 ± 0.0065 |
| LGCLVGVRFLGF | 0.642 ± 0.032 |
| LCLCGLLGSGPT | 0.736 ± 0.042 |
| LIPAASLSPLAC | 0.562 ± 0.013 |

| Sequence | protein stability index |
| --- | --- |
| RMKKKKNKARDI | 0.729 ± 0.045 |
| ESSVLGFWIMSL | 0.629 ± 0.041 |
| WIISERDRTEQT | 0.733 ± 0.06 |
| LLPQSPRPLVHS | 0.774 ± 0.065 |
| PISRRVIFCLQT | 0.62 ± 0.033 |
| PVPMVPTYPPSP | 0.736 ± 0.044 |
| GSGTPRTPCLSH | 0.642 ± 0.04 |
| PPPNPHAASTHH | 0.654 ± 0.0077 |
| PLAPPRHRRRPG | 0.7132 ± 0.0047 |
| AKSSLGSSYKTL | 0.761 ± 0.064 |
| LTVVGGVVGKVG | 0.689 ± 0.037 |
| CDSSSVGYLVVR | 0.655 ± 0.014 |
| GVGGFLGVVGVG | 0.5857 ± 0.0019 |
| GYSYTEFPPEAV | 0.708 ± 0.08 |
| LYSGLASEIWYT | 0.737 ± 0.045 |
| TPPPHNRTKTTT | 0.682 ± 0.072 |
| EESKQKKKNEEE | 0.676 ± 0.041 |
| ALPNPLLPPAPP | 0.612 ± 0.026 |
| NIKEKRNKKKRR | 0.677 ± 0.073 |
| LFLFSSAGYPNS | 0.661 ± 0.1 |
| LVEARQGAFLVV | 0.692 ± 0.029 |
| LWLDKSREGSLG | 0.701 ± 0.021 |
| ASSGGCVPTLPL | 0.68 ± 0.0078 |
| CSLTLPFFFGSL | 0.6771 ± 0.0026 |
| GIRKNIDNNEKI | 0.686 ± 0.03 |
| SLPPPPSPVSLF | 0.611 ± 0.07 |

| Sequence | protein stability index |
| --- | --- |
| AFPPDVPPLTPL | 0.72 ± 0.1 |
| IIKKKKKIKRNN | 0.683 ± 0.014 |
| PPPPPPLPHSPP | 0.647 ± 0.095 |
| SRVIFSQSLSVP | 0.654 ± 0.038 |
| AIPRPPRVWGHL | 0.727 ± 0.016 |
| CLRLAFPSGPCI | 0.683 ± 0.098 |
| SSSPLPPLRLCL | 0.743 ± 0.041 |
| PLPPPNPPLPVF | 0.615 ± 0.036 |
| SPCTSPARLKLP | 0.559 ± 0.063 |
| PLFLCVISPFRL | 0.5805 ± 0.0018 |
| AGRGGTGIGERV | 0.63 ± 0.072 |
| DKGTGYIVKRIT | 0.6872 ± 0.0044 |
| PRCPVNTHPLAR | 0.702 ± 0.013 |
| LIFPPLPPLPPR | 0.754 ± 0.01 |
| LGSILSSSSSRL | 0.699 ± 0.018 |
| DRWGGDWMERGG | 0.749 ± 0.05 |
| FLSLGVIARYFL | 0.6325 ± 0.0042 |
| PVRIQTFLFCVP | 0.595 ± 0.012 |
| GRDGQTLYLVLL | 0.686 ± 0.03 |
| PPSLLPAPQLPP | 0.757 ± 0.066 |
| PPPAPPPPLRLL | 0.721 ± 0.046 |
| RRPAQDAEPIQP | 0.661 ± 0.067 |
| KIKKKRGKTKKK | 0.708 ± 0.018 |
| HWYFARTSTVSC | 0.5505 ± 0.0015 |
| PRPPSPAPPPHP | 0.69904 ± 0.00044 |
| SWVIRSDLHYAL | 0.731 ± 0.032 |

| Sequence | protein stability index |
| --- | --- |
| SAEKKRAKCERR | 0.68 ± 0.01 |
| REGKIVNNKNEN | 0.687 ± 0.077 |
| PPHPVTLSPART | 0.614 ± 0.04 |
| LLCFRLFPALTP | 0.6228 ± 0.0057 |
| AKYPLTRCLFGS | 0.705 ± 0.033 |
| GGGGGCGRAGGG | 0.714 ± 0.053 |
| PGRRATKVPSPR | 0.719 ± 0.027 |
| TLSSGREVVGRW | 0.576 ± 0.012 |
| FLSSPPPPLRVP | 0.694 ± 0.054 |
| ARCGNSAPWHVG | 0.693 ± 0.019 |
| VGVCVGWDGRLW | 0.691 ± 0.025 |
| LSSARPLAGVHT | 0.675 ± 0.03 |
| CGSVERAEKGHI | 0.662 ± 0.025 |
| PAPPPPPPRPPP | 0.669 ± 0.071 |
| LPPPPAPSSAPL | 0.735 ± 0.14 |
| GEGRRWGSFWVG | 0.6701 ± 0.0039 |
| LNTVNGRSSTAK | 0.665 ± 0.019 |
| NNEKIEQRYSMK | 0.711 ± 0.019 |
| LASREFGVFCIW | 0.648 ± 0.057 |
| GLGGRGGAVGEW | 0.67252 ± 0.0004 |

— the supplement of paper PMC10724198
